Results from paper PMC8280269, “A novel mycothiol-dependent thiol–disulfide reductase in Corynebacterium glutamicum involving oxidative stress resistance” (3 Biotech, 2021).
Changes are numbered by the printed parent chain. Names and notes keep the numbering of the source.

T1: NCgl2478 (Corynebacterium glutamicum, UniProt Q8NMK6, C24S)
T1 construct: gene Cgl2567; full-length, N-terminal His6 from pET28a, E. coli BL21(DE3); tag cut with enterokinase for activity assays
T1 sequence (Q8NMK6 1-245 C24S): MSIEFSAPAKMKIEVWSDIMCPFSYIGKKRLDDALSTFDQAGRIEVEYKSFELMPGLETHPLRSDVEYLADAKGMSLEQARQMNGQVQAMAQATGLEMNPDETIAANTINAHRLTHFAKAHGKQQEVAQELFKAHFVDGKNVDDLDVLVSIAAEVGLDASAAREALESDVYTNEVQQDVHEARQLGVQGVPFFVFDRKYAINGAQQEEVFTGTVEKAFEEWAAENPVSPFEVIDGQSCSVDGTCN

B1: Mrx1 (Corynebacterium glutamicum ATCC 13032) (protein)
chain: MSNVTIYATDWCPYCRSLLKGLDGQEYDLIDVDQDEEAGEWVKSVNDGNRIVPTVRYSDGTHATNPLAAEVIAKIEALA
notes: pET28a-mrx1, N-terminal His6, E. coli BL21(DE3); tag cut for activity assays
B2: NCgl2478 (Corynebacterium glutamicum ATCC 13032) (protein)
chain: T1 sequence (Q8NMK6 1-245 C24S) with S24C
notes: full-length, N-terminal His6 from pET28a, E. coli BL21(DE3); tag cut with enterokinase for activity assays
B3: NCgl2478 (Corynebacterium glutamicum ATCC 13032; C24S) (protein)
chain: T1 sequence (Q8NMK6 1-245 C24S)
notes: as for B2

Experiments:
NCgl2478 = molecular target: T1, NCgl2478; assay: NBD-Cl labelling and DTNB thiol count after H2O2 with MSH; format: binding; conditions: covalent; mixed disulfide at Cys21 formed from the H2O2-oxidised sulfenic acid
Cys21 = assay: UV-vis; conditions: 10 °C; poly-buffer: 10 mM sodium acetate, 10 mM sodium phosphate, 10 mM sodium borate, 10 mM sodium citrate, starting pH 9.4, titrated with 100 mM HCl; 20 μM protein; reduced protein, referenced to the oxidized protein (Cys mutants oxidized with tenfold excess H2O2); no ligand
Cys24 = assay: UV-vis; conditions: 10 °C; poly-buffer: 10 mM sodium acetate, 10 mM sodium phosphate, 10 mM sodium borate, 10 mM sodium citrate, starting pH 9.4, titrated with 100 mM HCl; 20 μM protein; reduced protein, referenced to the oxidized protein (Cys mutants oxidized with tenfold excess H2O2); no ligand
purified protein = substrate: CC(=O)N[C@@H](CSSCCO)C(=O)N[C@H]1[C@@H](O[C@@H]2[C@H](O)[C@H](O)[C@@H](O)[C@H](O)[C@H]2O)O[C@H](CO)[C@@H](O)[C@@H]1O; assay: purified protein; format: biochemical, Corynebacterium glutamicum; conditions: 500 μM MSH, 5 μM Mtr, 250 μM NADPH, 50 mM potassium phosphate pH 7.6, 25 °C, substrate formed in situ from HED and MSH

Molecule | NBD-Cl labelling and DTNB thiol count after H2O2 with MSH (NCgl2478) | pKa (Cys21) | pKa (Cys24) | Km (purified protein) | kcat (purified protein)
CC(=O)N[C@@H](CS)C(=O)NC1[C@@H](O[C@@H]2[C@H](O)[C@H](O)[C@@H](O)[C@H](O)[C@H]2O)O[C@H](CO)[C@@H](O)[C@@H]1O (stereo partly drawn) [MSH, 1D-myo-inosityl-2-[N-acetyl-L-cysteinyl] amido-2-deoxy-α-D-glucopyranoside] | MSH reacted with NCgl2478:C24S–SOH to form NCgl2478:C24S–SSM |  |  |  | 
NCgl2478 (DsbA-like mycoredoxin / mycothiol-dependent thiol-disulfide reductase, annotated dithiol-disulfide isomerase DsbA) (Corynebacterium glutamicum (RES167, derived from ATCC 13032)) |  | less than 6 | 8.09 |  | 
B1 |  |  |  | 540 ± 110 µM | 103.81 ± 3.14 s⁻¹
B2 |  |  |  | 510 ± 50 µM | 8.55 ± 0.19 s⁻¹
B3 |  |  |  | 460 ± 50 µM | 11.37 ± 0.31 s⁻¹
